Results on one molecule are retold here after PMC10770723 (2023).

The test concerns the target T1, recombinant Der p 2 (Dermatophagoides pteronyssinus …, UniProt P49278).
T1 chain: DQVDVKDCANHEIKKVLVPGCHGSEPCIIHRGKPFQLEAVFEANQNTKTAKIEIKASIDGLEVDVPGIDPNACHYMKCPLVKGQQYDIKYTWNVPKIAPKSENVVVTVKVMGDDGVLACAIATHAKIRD
The experiment in a line: ELISA (coated rDer p 2, Siglec-Fc binding); Unmodified rDer p 2 does not bind; binding to Siglec-9-Fc requires chemical conjugation of α2-3 sialic acids to rDer p 2 (sia-rDer p 2).

B1: Siglec-9–hFc chimera (protein)
chain: QTSKLLTMQSSVTVQEGLCVHVPCSFSYPSHGWIYPGPVVHGYWFREGANTDQDAPVATNNPARAVWEETRDRFHLLGDPHTKNCTLSIRDARRSDAGRYFFRMEKGSIKWNYKHHRLSVNVTALTHRPNILIPGTLESGCPQNLTCSVPWACEQGTPPMISWIGTSVSPLDPSTTRSSVLTLIPQPQDHGTSLTCQVTFPGASVTTNKTVHLNVSYPPQNLTMTVFQGDGTVSTVLGNGSSLSLPEGQSLRLVCAVDAVDSNPPARLSLSWRGLTLCPSQPSNPGVLELPWVHLRDAAEFTCRAQNPLGSQQVYLNVSLQSKATSGVTQG
As to B1, the binding result was “no binding”.
